Experimental data: US20190382503A1 (published 2019)

Key:
[1] = target: T1, CD137 / 4-1BB (soluble antigen, form not stated) (UniProt Q07011 24-186, limits assumed); test: ELISA
T1 construct: also called biotinylated 4-1BB antigen; CD137 in ELISA

human 5T4 on cells [2] = target: T2, human 5T4 on cells (human, UniProt Q13641 32-420); test: flow cytometry, JEG cells, streptavidin-PE, normalized MFI of 2 pooled experiments
T2 construct: Human 5T4 on transfected cells (CHO-K1, CT26, B16) or endogenous on human tumour lines; the cell line is named under assay; also called trophoblast glycoprotein; TPBG
T2 sequence: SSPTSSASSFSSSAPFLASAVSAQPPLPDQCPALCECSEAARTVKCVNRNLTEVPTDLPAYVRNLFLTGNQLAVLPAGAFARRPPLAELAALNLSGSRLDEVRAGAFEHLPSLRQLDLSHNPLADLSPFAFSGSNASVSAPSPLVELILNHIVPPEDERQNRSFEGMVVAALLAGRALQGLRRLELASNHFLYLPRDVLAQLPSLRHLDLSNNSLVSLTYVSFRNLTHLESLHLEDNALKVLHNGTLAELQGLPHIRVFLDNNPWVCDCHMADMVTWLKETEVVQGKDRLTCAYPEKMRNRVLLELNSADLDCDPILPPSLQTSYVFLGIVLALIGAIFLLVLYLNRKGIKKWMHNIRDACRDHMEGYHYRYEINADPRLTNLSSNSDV
Method: (§1) FACS staining and analysis of 5T4-expressing cell lines: Prior to the FACS staining, all cell lines were characterized for their 5T4 expression levels using a receptor density kit (Quantum Simply Cellular, anti-human IgG, Bangs Laboratories, Inc). Adherent cell lines were cultured according to their supplier's instructions and were harvested from their cell culture flasks using Trypsin/EDTA, counted in R10 medium in a Burker chamber, and diluted in FACS buffer (PBS+0.5% BSA, 0.05% NaN₃) to a concentration of 4×10⁶ cells/mL. 50 μL (0.20×10⁶) of cell solution was added to a 96-well FACS staining plate (Falcon #351190). Cells were incubated for 20 min in 4° C. with 50 μL of the biotinylated ALG.APV-210 (2× final concentration). The antibodies were added in a serial dilution starting at 20 μg/mL titrating down in a 12 step 1/2 dilution down to 0.010 μg/mL. […] Cells were analysed for ALG.APV-210 binding using flow cytometry (FACSVerse) by gating on single cells. MFI values (secondary antibody only subtracted) from 1 out of 2 independent experiments, as well as normalized data and EC₅₀-values of pooled data from 2 experiments were determined and plotted using GraphPad Prism 7, non-linear regression log (agonist) vs. normalized response-variable slope.

human 5T4 on cells [3] = target: T2, human 5T4 on cells; test: flow cytometry, BxPC-3 cells, streptavidin-PE, normalized MFI of 2 pooled experiments
Method: as §1

human 5T4 on cells [4] = target: T2, human 5T4 on cells; test: flow cytometry, SKOV-3 cells, streptavidin-PE, normalized MFI of 2 pooled experiments
Method: (§2) Biotinylation: In order to detect ALG.APV-210 binding to 5T4-expressing cell lines, ALG.APV-210 was first biotinylated. The quality of the biotinylated protein and the impact on binding to its targets was assessed using ELISA.
as §1, with “concentration).” for “concentration). The antibodies were added in a serial dilution starting at 20 μg/mL titrating down in a 12 step 1/2 dilution down to 0.010 μg/mL.”

human 5T4 on cells [5] = target: T2, human 5T4 on cells; test: flow cytometry, HCT-116 cells, streptavidin-PE, normalized MFI of 2 pooled experiments
Method: as §1

human 5T4 on cells [6] = target: T2, human 5T4 on cells; test: flow cytometry, CHO-hu5T4 cells, streptavidin-PE, normalized MFI of 2 pooled experiments
Method: as §2
as §1, with “concentration).” for “concentration). The antibodies were added in a serial dilution starting at 20 μg/mL titrating down in a 12 step 1/2 dilution down to 0.010 μg/mL.”

human 5T4 on cells [7] = target: T2, human 5T4 on cells; test: flow cytometry, CT26-hu5T4^int cells, streptavidin-PE, normalized MFI of 2 pooled experiments
Method: as §2
as §1, with “concentration).” for “concentration). The antibodies were added in a serial dilution starting at 20 μg/mL titrating down in a 12 step 1/2 dilution down to 0.010 μg/mL.”

human 5T4 on cells [8] = target: T2, human 5T4 on cells; test: flow cytometry, CT26-hu5T4^low cells, streptavidin-PE, normalized MFI of 2 pooled experiments
Method: as §1

human CD137 on cells = target: T3, human CD137 on cells (human, UniProt Q07011 24-255); test: flow cytometry, human CD8 T cells gated from CD3-stimulated PBMC, normalized MFI, 2 pooled experiments
T3 construct: Human CD137 on CHO-K1 transfectants, Jurkat/CD137 reporter cells or CD3-stimulated primary human CD8 T cells; cells named under assay; also called 4-1BB; TNFRSF9
Method: FACS staining and analysis of CD8 T cells: Following 48 h of incubation with or without CD3, human and cynomolgus PBMC were harvested, pooled, recounted and diluted in FACS buffer (PBS+0.5% BSA, 0.05% NaN₃) to a concentration of 5×10⁶ cells/mL. 50 μL (0.25×10⁶ cells) of cell solution was added to a 96-well FACS staining plate (Falcon #351190). Following 10 min of Fc-blocking in RT using Beriglobin (hIgG, 200 μg/mL), cells were washed in FACS buffer and then incubated for 1 h in 4° C. with 100 μL of the biotinylated ALG.APV-210 or negative control. The antibodies were added in a serial dilution starting either at 5 μg/mL titrating down in a 12 step 1/3 dilution down to 0.0003 μg/mL (exp 1) or 1 μg/mL titrating down in a 12 step 1/2 dilution down to 0.0005 μg/mL (exp 2). […] Cells were analysed for ALG.APV-210 binding using flow cytometry by gating on viable, single cells expressing CD3 and CD8. MFI values (FMO subtracted) from 2 independent experiments as well as normalized pooled data from 2 experiments and EC₅₀-values were determined and plotted using GraphPad Prism 7, non-linear regression log (agonist) vs. normalized response-variable slope, n=6 donors/group.

T3 sequence (Q07011 24-255 limits assumed): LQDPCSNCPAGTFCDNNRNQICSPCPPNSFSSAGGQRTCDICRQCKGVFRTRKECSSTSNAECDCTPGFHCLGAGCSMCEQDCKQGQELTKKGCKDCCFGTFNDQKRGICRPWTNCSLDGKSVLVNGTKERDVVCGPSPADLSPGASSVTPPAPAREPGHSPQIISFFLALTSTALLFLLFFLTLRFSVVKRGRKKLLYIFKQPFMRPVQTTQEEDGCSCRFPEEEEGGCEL

B1: biotinylated ALG.APV-210 (bispecific antibody)
chain: EVQLLESGGGLVQPGGSLRLSCAASGFTFSHGSMYWVRQAPGKGLEWVSSISSGSGSTYYADSVKGRFTISHDNSKNTLYLQMNSLRAEDTAVYYCARSSYYGSYYSIDYWGQGTLVTVSSGGGGSGGGGSGGGGSGGGGSDIQMTQSPSSLSASVGDRVTITCRASQSISSYLNWYQQKPGKAPKLLIYAASSLQSGVPSRFSGSGSGTDFTLTISSLQPEDFATYYCQQYYDNLPTFGQGTKLEIKEPKSSDKTHTCPPCPAPEAAGAPSVFLFPPKPKDTLMISRTPEVTCVVVDVSHEDPEVKFNWYVDGVEVHNAKTKPREEQYNSTYRVVSVLTVLHQDWLNGKEYKCAVSNKALPAPIEKTISKAKGQPREPQVYTLPPSRDELTKNQVSLTCLVKGFYPSDIAVEWESNGQPENNYKTTPPVLDSDGSFFLYSKLTVDKSRWQQGNVFSCSVMHEALHNHYTQKSLSLSPGSGGGGSGGGGSGGGGSPSEVQLLESGGGLVQPGGSLRLSCAASGFTFSSYAMSWVRQAPGKCLEWVSAISGSGGSTYYADSVKGRFTISRDNSKNTLYLQMNSLRAEDTAVYYCARYYGGYYSAWMDYWGQGTLVTVSSGGGGSGGGGSGGGGSGGGGSDIQMTQSPSSLSASVGDRVTITCRASQSISSFLNWYQQKPGKAPKLLIYAASSLQSGVPSRFSGSGSGTDFTLTISSLQPEDSATYYCQQTYGYLHTFGCGTKLEIKR
modifications: biotinylated (sites not given)
EC50 [1]: 0.6 nM | EC50 (human 5T4 on cells [2]): 8 nM | EC50 (human 5T4 on cells [3]): 20 nM | EC50 (human 5T4 on cells [4]): 15 nM | EC50 (human 5T4 on cells [5]): 16 nM | EC50 (human 5T4 on cells [6]): 23 nM | EC50 (human 5T4 on cells [7]): 12 nM | EC50 (human 5T4 on cells [8]): 11 nM | EC50 (human CD137 on cells): 0.235 nM
